# US20260365692A1, “COMPOSITIONS COMPRISING PROTEINS DISSOLVED IN FLUORINATED SOLVENTS, AND METHODS OF MAKING AND USING THE SAME” (priority 2022, published 2026)
# What was measured:
# A549 cells = test: Annexin V/propidium iodide co-staining of A549 cells; format: cell-based, human; settings: PFNA
# Protocol: FIGS. 20A-20D depicts annexin-V/PI co-staining of A549 cells treated without or with PFNA at 2 and 24 hours. FIGS. 20A-20C: Flow cytometry scatter plots. FIG. 20D: quadrant data comparing the population of unaffected cells (native), to cells displaying lipid translocation (Lip. Tran.) membrane permeabilization (Mem. Perm.), or both.
# The ability of PFNA to modulate protein uptake may be explained by the reported anchorage of fluorinated amphiphiles within cell membranes to alter lipid bilayer fluidity and liquid-crystalline phase transitions. To test this assertion, and inform the interpretation of the protein uptake results, the annexin V (AV)/propidium iodide (PI) assay, commonly used to study apoptosis, was repurposed to explore membrane dynamics following PFNA exposure (FIGS. 20A-20D). Here, AV bound phosphatidylserine lipids exposed via inner-to-outer leaflet translocation, while PI positively labeled cells with permeabilized membranes. Comparing dye uptake at early (2 hour) and late (24 hour) PFNA exposure times allowed interpretation of lipid translocation (AV^+, PI^−), membrane permeabilization (AV^−, PI^+), both (AV^+, PI^+), or neither (AV^−, PI^−). […]
# BSA = BSA (Bos taurus, UniProt P02769); test: FTIR of BSA eluted from PFOc into PBS; design: species or system bovine; settings: dispersed BSA extracted from PFOc into PBS
# Protocol: FIG. 47 depicts stacked FTIR spectra of PD-7, BSA and the PD-7:BSA complex after elution into PBS.
# To test this assertion, Fourier transform infrared (FTIR) spectroscopy was performed on BSA samples following extraction of the PD-7 dispersed protein from PFOc into a physiologic buffer. Selected model protein BSA was diluted to […], and PFNA was diluted to 2 mM in PBS. The intermolecular interactions were initiated by adding an equal amount of BSA and PFNA samples into a centrifuge tube. After 1-hour incubation, samples were frozen at −80 °C, and lyophilize overnight to remove water. FTIR spectrometry was then performed on powdered samples using LN-MCT detector (4000-800 cm-1, backward output). Data is represented by average+−SD of wavenumber among replicates depicting corresponding characteristic bonds. An equal volume of PBS was added to the BSA:PD-7 sample in PFOc, and vortexing the phase separated mixture for ~2 seconds.
# cells = test: Cellular uptake of PFNA-complexed proteins; format: cell-based
# From the text: Multiplexed in vitro assays were employed to probe the influence of PFNA interactions on protein uptake and transport in cells. A549 and PC9 human lung cells were prioritized for these assays given that pulmonary tissue is a primary site of perfluoroalkyl bioaccumulation in humans (Reference: 63). Before initiating experiments, cellular toxicity assays established a maximum tolerated dose of PFNA to avoid confounding protein transport experiments with substantive cell death. Protein uptake was then studied using green fluorescent protein (GFP) and bovine serum albumin (BSACy5) as model biologics that employ non-specific pinocytic mechanisms for cellular entry.
# proteinase K = test: β-Gal activity after proteinase K exposure; format: physicochemical; settings: 24 hours
# From the text: (§1) FIGS. 54A-54C depict the relative activity of the β-Gal protein dispersed in PBS or PFOc solvents without and with contamination by (FIG. 54A) proteinase K, (FIG. 54B) bleach or (FIG. 54C) hydrochloric acid. Data shown as average±s.d. of n=3 technical replicates. Statistical significance between conditions is indicated by a line using unpaired Student's t-test with n.s.=not significant, * p<0.05, ** p<0.01, and *** p<0.001.
# An equal volumetric amount of β-Gal and proteinase K stocks were mixed and incubated together for 24 hours. The remaining active β-Gal was evaluated by adding ONPG substrate diluted in PBS at 4 mg/mL directly to the samples. This action eluted β-Gal from PFOc solvent and immediately starting ONPG conversion without further β-Gal disruption from residue proteinase K that was also eluted into aqueous buffer. The enzymatic activity was calculated from measuring absorbance (420 nm) after 15-minute conversion. […] A likely explanation for this is that the proteinase K protein is also coated by the PD-7 additive after addition to the PFOc solvent, leading to its segregation from the co-dispersed β-Gal protein.
# [1] = β-Gal activity after hydrochloric acid exposure; format: physicochemical; settings: β-Gal in PFOc
# Protocol: as §1
# Here, stock of lyophilized β-Gal was prepared then dispersed in PBS or PFOc. A small volumetric quantity (1% v/v) of 10% bleach was added to the protein samples. Immediately, an equal volume of PBS containing 4 mg/mL ONPG substrate was added to the sample and incubated for 5 minutes to allow for complete substrate conversion. Last, absorbance was taken at 420 nm on the eluted samples, and relative activity was calculated by normalizing absorbance of converted ONPG in oxidizer-treated samples against their corresponding untreated group. […] Here, stock of lyophilized B-Gal was prepared then dispersed in PBS or PFOc. A small volumetric quantity (4% v/v) of 0.1 M HCl was added to the protein samples. After 30 seconds incubation, PBS containing 4 mg/mL ONPG was added to each of the samples to elute and start substrate conversion. After 3-minute conversion, the eluted samples were retrieved, and absorbance was read at 420 nm. […]
# [2] = Acute toxicity of β-Gal formulations in mice (Example 4); format: in vivo, C57BL/6J mice; settings: 24 h
# Protocol: FIG. 56 depicts serologic toxicology results from C57BL/6J mice 24 hours after administration of saline (control), β-GalSaline or β-GalExt. PFOc. Data shown as box and whisker plot±s.d. of n=5 technical replicates. Statistical significance determined using Student's t-test and represented as * p<0.05; all other comparisons were found not to be significant (p>0.05).
# Finally, to assess the potential for acute toxicity of the fluorous dispersant, serologic chemistry analysis and histology was performed 24 hours after treating mice with β-Gal delivered from saline or PFOc extractions. […] Reduction of this marker can indicate a transient impairment of kidney and/or liver function.
# [3] = β-Gal delivered from PFOc vs saline
# Sequence of BSA (P02769 25-607): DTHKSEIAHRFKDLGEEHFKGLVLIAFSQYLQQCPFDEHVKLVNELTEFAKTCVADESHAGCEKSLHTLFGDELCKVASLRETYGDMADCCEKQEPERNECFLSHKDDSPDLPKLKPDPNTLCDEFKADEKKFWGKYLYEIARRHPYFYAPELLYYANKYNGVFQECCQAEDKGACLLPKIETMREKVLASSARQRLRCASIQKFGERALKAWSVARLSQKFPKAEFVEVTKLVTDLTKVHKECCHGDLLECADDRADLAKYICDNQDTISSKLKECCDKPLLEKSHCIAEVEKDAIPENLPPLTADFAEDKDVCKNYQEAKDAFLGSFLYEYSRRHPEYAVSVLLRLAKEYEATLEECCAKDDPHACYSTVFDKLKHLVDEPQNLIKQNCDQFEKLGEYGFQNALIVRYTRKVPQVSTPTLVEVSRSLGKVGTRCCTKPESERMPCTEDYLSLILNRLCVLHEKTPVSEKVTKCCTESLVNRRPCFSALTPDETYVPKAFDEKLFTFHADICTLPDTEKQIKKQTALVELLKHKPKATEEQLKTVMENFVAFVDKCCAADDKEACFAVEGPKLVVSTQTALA
Molecule,"lipid translocation (AV+, PI−) (A549 cells; 2 hours)","lipid translocation and membrane permeability (AV+, PI+) (A549 cells; 24 hours)",dispersant spectral feature after extraction into physiologic buffer/PBS (BSA),cellular uptake of complexed proteins (cells),β-Gal activity in presence of proteinase K (proteinase K; PFOc formulation),β-Gal activity in presence of proteinase K (proteinase K; dissolved in PBS),β-Gal activity versus PBS controls ([1]; HCl),"loss in functionality ([1]; HCl (4% v/v of 0.1 M), few minutes) [%]","histologic analysis of vital organs ([2]; kidney, liver, lung, spleen)","albumin/globulin (ALB/GLOB) ratio [2, 3]","other renal (CREA, BUN, TP) and hepatic (ALT, AST, ALKP) markers [2, 3]"
"O=C(O)C(F)(F)C(F)(F)C(F)(F)C(F)(F)C(F)(F)C(F)(F)C(F)(F)C(F)(F)F [Compound 7, perfluoronanonic acid]",elevated,increased,showed the presence of C—F stretching vibrations (1500-1000 cm-1),significantly enhanced,,,,,,,
"β-Gal: β-Galactosidase (β-Gal), dissolved in PBS/saline or dispersed in PFOc",,,,,no statistically significant change in activity,completely inactivated,statistically higher than that of PBS controls,≥ 50,"did not identify pathologic signs of necrosis, cellular infiltration, inflammation, or hemorrhage",statistically significant reduction,absence of statistically significant changes
